Holding throughout (assay): two-hybrid library CCNG1;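 further: natural log of median RNA to DNA barcode read ratio; higher means stronger binding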
Assay [1] concerns the target T1, 4H363-bA.
T1 chain: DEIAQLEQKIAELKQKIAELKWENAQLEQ

Assay [2] deals with T2, 4H3907-bA.
T2 chain: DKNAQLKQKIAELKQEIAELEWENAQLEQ

In assay [3] the target is T3, 4H3961-bA.
T3 chain: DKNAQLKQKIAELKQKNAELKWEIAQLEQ

Assay [4] concerns the target T4, 4H470-bA.
T4 chain: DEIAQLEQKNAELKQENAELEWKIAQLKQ

In assay [5] the target is T5, 4H2518-bH.
T5 chain: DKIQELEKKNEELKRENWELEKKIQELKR

Assay [6] has as its target T6, 4H349-bH.
T6 chain: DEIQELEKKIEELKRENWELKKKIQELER

In assay [7] the target is T7, 4H2444-bH.
T7 chain: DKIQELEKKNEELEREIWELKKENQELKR

Assay [8] concerns the target T8, 4H2931-bH.
T8 chain: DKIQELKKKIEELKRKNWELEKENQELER

Assay [9] has as its target T9, 4H56-bH.
T9 chain: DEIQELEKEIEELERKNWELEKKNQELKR

Assay [10] has as its target T10, 4H730-bH.
T10 chain: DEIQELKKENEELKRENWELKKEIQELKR

The target in assay [11] is T11, 4H3041-bH.
T11 chain: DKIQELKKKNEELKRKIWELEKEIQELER

In assay [12] the target is T12, 4H2760-bH.
T12 chain: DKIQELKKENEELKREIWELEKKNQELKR

Assay [13] has as its target T13, 4H264-bH.
T13 chain: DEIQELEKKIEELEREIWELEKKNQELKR

The target of assay [14] is T14, 4H3364-bH.
T14 chain: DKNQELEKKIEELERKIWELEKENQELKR

For assay [15], the target named is T15, 4H932-bH.
T15 chain: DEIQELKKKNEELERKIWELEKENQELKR

Assay [16] concerns the target T16, 4H949-bH.
T16 chain: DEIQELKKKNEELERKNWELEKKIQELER

Assay [17] has as its target T17, 4H2859-bH.
T17 chain: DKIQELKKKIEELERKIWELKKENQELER

Assay [18] concerns the target T18, 4H3381-bH.
T18 chain: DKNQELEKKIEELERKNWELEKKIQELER

In assay [19] the target is T19, 4H3297-bH.
T19 chain: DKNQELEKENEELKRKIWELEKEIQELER

Assay [20] deals with T20, 4H796-bH.
T20 chain: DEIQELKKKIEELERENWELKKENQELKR

Assay [21] has as its target T21, 4H2585-bH.
T21 chain: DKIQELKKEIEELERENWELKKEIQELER

Assay [22] deals with T22, 4H3414-bA.
T22 chain: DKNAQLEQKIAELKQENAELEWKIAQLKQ

For assay [23], the target named is T23, 4H3817-bA.
T23 chain: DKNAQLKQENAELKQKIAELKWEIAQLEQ

For assay [24], the target named is T24, 4H570-bA.
T24 chain: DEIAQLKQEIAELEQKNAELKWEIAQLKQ

Assay [25] concerns the target T25, 4H3631-bA.
T25 chain: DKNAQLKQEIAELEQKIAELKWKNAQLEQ

In assay [26] the target is T26, 4H3858-bA.
T26 chain: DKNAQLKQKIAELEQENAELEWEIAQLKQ

Assay [27] concerns the target T27, 4H1985-bA.
T27 chain: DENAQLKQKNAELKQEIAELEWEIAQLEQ

The target of assay [28] is T28, 4H3298-bA.
T28 chain: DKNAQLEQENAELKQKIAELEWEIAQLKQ

Assay [29] addresses T29, 4H619-bA.
T29 chain: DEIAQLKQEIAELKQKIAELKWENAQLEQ

The target in assay [30] is T30, 4H3277-bA.
T30 chain: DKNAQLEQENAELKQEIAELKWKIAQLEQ

In assay [31] the target is T31, 4H3172-bA.
T31 chain: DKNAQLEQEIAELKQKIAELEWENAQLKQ

Assay [32] addresses T32, 4H626-bA.
T32 chain: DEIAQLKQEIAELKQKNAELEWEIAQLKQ

Assay [33] has as its target T33, 4H3974-bA.
T33 chain: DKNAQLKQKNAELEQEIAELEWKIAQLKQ

Assay [34] deals with T34, 4H3628-bA.
T34 chain: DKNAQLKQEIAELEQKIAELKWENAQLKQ

For assay [35], the target named is T35, 4H584-bA.
T35 chain: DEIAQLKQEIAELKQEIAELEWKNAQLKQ

Assay [36] deals with T36, 4H1804-bA.
T36 chain: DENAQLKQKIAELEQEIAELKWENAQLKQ

For assay [37], the target named is T37, O14-bA.
T37 chain: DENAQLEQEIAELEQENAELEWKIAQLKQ

For assay [38], the target named is T38, 4H3855-bA.
T38 chain: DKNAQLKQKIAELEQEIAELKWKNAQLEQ

The target of assay [39] is T39, 4H906-bA.
T39 chain: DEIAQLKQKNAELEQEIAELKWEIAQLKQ

In assay [40] the target is T40, 4H3129-bA.
T40 chain: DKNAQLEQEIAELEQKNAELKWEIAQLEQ

In assay [41] the target is T41, 4H3462-bA.
T41 chain: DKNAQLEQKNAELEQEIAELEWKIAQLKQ

Assay [42] has as its target T42, 4H591-bA.
T42 chain: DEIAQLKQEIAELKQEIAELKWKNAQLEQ

The target of assay [43] is T43, 4H3926-bA.
T43 chain: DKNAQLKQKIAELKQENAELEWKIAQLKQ

Assay [44] has as its target T44, 4H3162-bA.
T44 chain: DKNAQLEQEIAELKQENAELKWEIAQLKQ

The target of assay [45] is T45, 4H3175-bA.
T45 chain: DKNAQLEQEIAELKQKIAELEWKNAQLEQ

Assay [46] deals with T46, 4H3613-bA.
T46 chain: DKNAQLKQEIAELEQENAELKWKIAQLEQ

Assay [47] deals with T47, 4H1710-bA.
T47 chain: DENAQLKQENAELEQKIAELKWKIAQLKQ

In assay [48] the target is T48, 4H1899-bA.
T48 chain: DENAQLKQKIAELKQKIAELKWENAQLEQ

The target in assay [49] is T49, 4H850-bA.
T49 chain: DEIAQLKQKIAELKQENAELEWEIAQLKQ

The target in assay [50] is T50, 4H3497-bA.
T50 chain: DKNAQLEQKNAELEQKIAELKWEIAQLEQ

For assay [51], the target named is T51, 4H3638-bA.
T51 chain: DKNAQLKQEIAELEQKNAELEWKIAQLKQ

As for DEIAQLEQKIAELKQKIAELKWENAQLEQ [4H363-bA], the interaction score in [1] was 1.08; in [2] it was 1.32; in assay [3], 0.154; in assay [4] it was -2.31.
Consider DKIQELEKKNEELEREIWELKKENQELKR [4H2444-bH], for which the interaction score is 0.571 in assay [5]; -0.694 in assay [6]; 1.48 in assay [7]; 0.0488 in [8]; -0.284 in assay [9]; -0.91 in assay [10]. Also, the interaction score in assay [11] is -0.0348; in [12] it was 0.592; in [13], -2.12; in assay [14] it was 0.375; in assay [15] it was 0.176; in assay [16], -0.478. The interaction score in assay [17] came out at 0.771; in [18] it was 0.313; in [19] it was 0.285; in assay [20] it was 0.0566; in assay [21], 0.868.
For the molecule DENAQLKQENAELEQKIAELKWKIAQLKQ [4H1710-bA], the interaction score was -0.541 in assay [22]; 1.53 in assay [23]; -1.24 in assay [24]; 1.48 in assay [25]; 0.318 in assay [26]; 2.11 in assay [27]. Further, the interaction score in assay [28] was 0.819; in assay [29] it was 0.519; in assay [30], -0.282; in assay [31], -0.97; in [32], -0.621; in assay [33], 1.34. Further, the interaction score was 0.848 in assay [34]; -0.0679 in assay [35]; -0.669 in assay [36]; -1.06 in assay [37]; 0.515 in assay [38]; 0.904 in [39]. For the same molecule, the interaction score in assay [40] is 0.367; in assay [41], 1.04; in assay [42], -1.11; in assay [43], 0.352; in assay [44] it was -0.713; in assay [45], -0.421. In addition, the interaction score is 0.262 in assay [46]; 0.102 in [47]; -0.115 in assay [48]; 0.0118 in [49]; 1.01 in assay [50]; 0.729 in assay [51].

The record behind these values is article PMC10397247.
